Test results as given in the nanobody polyreactivity screen of Harvey et al. (2022).

Test: yeast display, Sf9 membrane polyspecificity reagent, FACS + sequencing; frameworks hold sequencing errors
In short: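 Galactose-induced (36–48 hours) yeast carrying a synthetic nanobody display library were exposed to 10% biotinylated, detergent-solubilized Sf9 membrane reagent at 4 °C for 1 hour. FACS followed streptavidin microbead enrichment, using low and high (top ~1%) gates for expression (anti-HA) and reagent binding (streptavidin). Colony PCR, MiSeq 2 × 250 sequencing and CDR-length filtering followed. Labels for polyreactivity reflect the gate of origin.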

Row | Sequence | polyreactivity (PSR sort gate)
1 | QDQIVDSRGVLVQEGGSLGLSCAASGLTIYSYAMGFSRQAPRKERELVATITNGDTTTYAETVKARFTISRDNAKNNVIFQFNILKPEDTAVYYCAQHISPGYDEYDYWGQGTQVTVSS | low polyreactivity
2 | QVQLVESGGGLVQAGGSLRLSCAASGRTRGVNAMGWYSQAPGKERELVAAITRRGGSTSYADSVKGRFTISRDNEKNTVYLHMNSLKPEDTAVYYCAAGVIREKYYIWSDYEYDYWGQGTQVTVSS | low polyreactivity
3 | QVQLVESGGGLVQSGGSLRLSCAASGYIFGYYAMGWYRQAPGKERELVAAITGTDDTYYADSVKGRFTISRDNAKNTVYLQMNSLKPEDTAVYYCAAYSWWNEYDYWGQGTQVTVSS | high polyreactivity
4 | QVQLVESGGGLVQAGGSLRLSCAASGFIFQEYAMGWYRQAPGKERELVAAITSGGSTNYADSVKGRFTISRDNAKNTVYLQMNSLKPADTAVYYCNVDSPDYYYDYDYWGQGTQVTVSS | low polyreactivity
5 | QVQLVESGGGLVQAGGSLRLSSAASGFTLGYNAMGWYRQAPGKERELVAGITWSGGSTSYADSVKGRFTISRDNAKNTVYLQMNSLKPEDTAVYYCAKLRRYSGWLPWPYAYDYWGQGTQVTVSS | high polyreactivity
6 | QVQLVESGGGLVQAGGSLRLSCAASGITFAYYVMGWYRPAPGKERELVAVISSRGSRTFYADSVKGRFTISRDNAKNTVYLQMNSLKPEDTAVYYCAADSTYSYYWGQGTQVTVSS | high polyreactivity
7 | QVQLVESGGGLVQAGGSLRLTCAASGLIFFTPYALGWYRQAPGTESELVAVITWRGASTYYADSVKGRFTISRDNAKHTVYFQMNSLKPEDTAVYYCAAKLCSVWKESYDSWGQGTQVTVSS | low polyreactivity
8 | QVQLVESGGGLVQAGGSLRLSCAASGRIFGWYAMGSYRQAPGKEREFVAAITRRGGRTYYADSVKGRFTISRDNEKNNVYLQMNSLKPEDTAVYYCAVKYVRIGGVGPIVIYNYWGQGTQVTVSS | high polyreactivity
9 | QVQLVESGGGLDQARGSLRLSCAASGRTFYSYAMGWYRQAPGKERELVAAISKRGTSTYYADSVKGRFTISRDNAKNTVYLQMNSLKPEDTAVYYCDAGAYIWDIYSYRWYDYWGQGTQVTVSS | high polyreactivity
10 | QVQLVESGGGLVQAGGSLRLSCAASGINFNLYAMGWYRQAPGKERELVAAISRSGDSTNYADSVKGRFTISRDNAKNTVDLQMNSLKPEDTAVYYCAVGYRYLKWVDYWGQGTQVTVSS | high polyreactivity
11 | QVQLVESGGGLVQAGGSLRLSCAASGRIFARNAMGWYRQAPGKERELVADITSTGSTNYADSVKGRFTISRDNAMITVYLQMNSLKPEDTAVYYCAADYYTGYVWEDYYWGQGTQVTVSS | low polyreactivity
12 | QVQLVESGGGLVQAGGSLRLSCAASGLTFDWNTMGWYRQAPGKERELVATITYTGGSTYYADSVKGRFTISRDNAKNTVYLQMNSLKPEDTAVYFCAARRTRYRSYSRVRYTYDYWGQGTQVTVSS | high polyreactivity
13 | QVQLVESGGGLVQAGGSLRLSCAASGNIFLRYAMGWYRQAPGKERELVASITRSGASTYYAVSVKGRFTISRDNAKNTVYLQMNSLKPEDTAVYYCAASYYFRYYRGGYWGQGTQVTVSS | high polyreactivity
14 | QVQLVESGGGLVQAGGSLRLSCAASGNTFVKYVIGWYRQAPGKEREYVAAITVRGNTYYADSVKGRFTISRDNAKNTVYLQMNSLKPEDTAVYYCAARIYYLYKDRRLGYYWGQGTQVTVSS | high polyreactivity
15 | QVQLVESGGGLVQAGGSLRLSCAASGSTFYLYVMGWYRQAPGKERELVAAIRRSGTRTYYADSVKGRFTISRDNAKNTVYLQMNSLKPEDTAVYYCAARYSRPSKAYGYWGQGTQVTVSS | high polyreactivity
16 | QVQLVESGGGLVQAGGSLRLSCAASGSTFPKYAMGWYRQAPGKERELVAAITFTGSSTYYADSVKGRFTISRDNAKNTVYLQMNSLKPEDTAVYYCNAVYYTGYYWGQGTQVTVSS | low polyreactivity
17 | QVQLVESGGGLVQAGGSLRLSCAASGSTFYPYAMGWYRQAPGKERELVAAISYSGGSTYYADSVKGRFTISRDNAKNTVYLQMNSLKPEDTAVYYCAAYYRVYGASYDYWGQGTQVTVSS | high polyreactivity
18 | QVQLVESGGGLVQAGGSLRLSCAASGSIFGYYAMGWYRQAPGKERELVAAITWNADGTYYADSVKGRFTISRDNAKNTVYLQMNSLKPEDTAVYYCAADQYYQDWGGGYDYWGQGTQVTVSS | low polyreactivity
19 | QVQLVESGGGLVQAGGSLRLTCAASGYTFGKYAMGWYREAPGKERELVATIRSGGSTNYADSLKGRFTISRDNAKNTVYLQMNSLKPEDTAVYYCNKRYRYEYGYDYWGQGTLVTVSS | high polyreactivity
20 | QVQLVESGGGLVQSGGSLRLSCAASGGTFRSYAMGWYIQAPGKERELVYAIRRSGGSTYYADSVKGRFTISRDNTKNTVYLQMNSLKPEDTAVYYCAARGYNSRRIWKYYYWGQGTQVTVTS | high polyreactivity
21 | QVQLVESVGGLVQAGGSLRLSCAASGGTFSFNAMGWYRQAPGKERELVAAITQTGDRTYYADSVKGRFTISRDNAKNTVYLQMNSLKPEDTAVYYCAADDIYYQGIYRGSEFDYRGQGTQVTVSS | low polyreactivity
22 | QVQLVESGGGLVQAGGSLRLSCAASGSIFTGNTMGWYRQAPGNERELVAAMSRRGGRTYYADSVKGRFTISRDNAKNTVYLQMNSLKPEDPAVYYCAADGWYWTYIVEYWGQGTQVTVSS | high polyreactivity

Row | Sequence | polyreactivity (PSR sort gate)
23 | QVQLVESGGGLVQAGGSLRLSCAASGFNFVHYAMGWYRPAPGKDRELVAAISKRGGTTYYADSVKGRFTISRDNAKNTVYLQMNSLKPEDSAVYYCNADVTNWEDDYYYWGQGTQVNVSS | high polyreactivity
24 | QVQLVESGGGLVQAGGSLRLSCAASGRTFGKNAMGWYRQAPGKERELVAAISWSGGRTYYADSVKGRFTISRDNAKNTVYLQMNSLKPEDTAVYYCAAVRRRRNSYGYWGQGTQVNVSS | high polyreactivity
25 | QVQLVESGGGLVQAGGSLRLSCAASGSIFAGNAMGWYRQPPGKERELVASISWRGGSTYYADSVKGRFTISRDNAKKTVYLQMNSLKPEDTAVYYCNADLVLFPLTWPYYYWGQGTQVTVSS | low polyreactivity
26 | QVQLVESGGGLVQAGGSLRLSCAASGSIFRYYAMGWYRQAPGKEREFVASITYRGGRTYYADSVKGRFTISRDNAKNTVYLQMNSLKPEDTAVYYCAARTRAGAWTSKYLDYWGQGTQVTVSS | high polyreactivity
27 | QVQLVESGGGLVQSGGSLPLSCAASGRIFSRNAMGWYRQAPGKERELVAAITSGGSTYYADSVKGRFTISRDNAKNTVYLQMNSLKPEDTAVSTVKILRYDYWGQGTQVTVSS | high polyreactivity
28 | QVQLVESGGGLVQAGGSLSISCASSGRNFGANAMGLYRQAPGKERELVAVITGGGGTYYADSVKGRFTISRDNAKNTVYLQMNSLKPEDTAVYYCDWPRYYYTYPSHPMDYWGQGTQVTVSS | low polyreactivity
29 | QVHLVESGGGLGKAGGSLRLTCAASGSTFKYYAMAWYRQAPGKETELVAAISQRGGSTYYADSVKGRFTISRYNAKNTVYLQMNCLKPEDTAVYYCNAGFQRAYSGPGYDMDYWGQGTQVTVSS | high polyreactivity
30 | QVQLVESGGGLVKAGGSLRLSCAASFFFYDMGWYRQAPGKERELVAAISWRGDTTYYADSVKGRFTISRDNAKNTVYLQMNSLKPEDTAVYYCAADYYGNVVYPSYYWGQGTQVTVSS | high polyreactivity
31 | QVQLEESGGGLVQAGGSLRLSCAASGSIFAVYAKGWYRQAPGKEREFVARISWGGGRTYYADSVKGRFTISRDNAKNTVYLQMNSLKPEDTAVYYCAATFRARPRENYWGQGTQVTVSS | high polyreactivity
32 | QVQLVESGGGLVQAGGSLRLSCAASGFTFYKNTMGWYRQAPGKERELVAAISSSGSSTYYADSVKGRFTISRDKAKNTVYLQMNSLKPEDTAVYYCAAGRFAYHDDYWGQGTQVTVSS | high polyreactivity
33 | QDQLVESGGGLVQAGGSLRLSCAASGSTFQDYAMGWYRQAPGKERELVAAITYSGGSTYYADSVKGRFTISRDIAKNTVYLQMNSLKPEDTAVYYCAAKDTTVFYYDDDYWGHGTQVTVSS | low polyreactivity
34 | QVQLVESGGGLVQAGGSLRLSCAASGFTFIKYAMGWYRQAPGKEREFVAAITRSGTSTYYADSVKGRFTISRDNAKNTVYLQMNSLKPEDTAVYYCAARYVYNSDRVSERDYWGQGTQVTVSS | high polyreactivity
35 | QVQLVESGGGLVQAGGSLRLSCAASGSTFGYNAMGWYRQAPGKERELVAASSRSGGRTYYADSVKGRFTISRDNAKNTVYLQMNSLKPEDTAVYYCATYYTNKVPARYYWGQGTQVTVSS | high polyreactivity
36 | QVQLVESGAGLVQAGGSLRISCAASGRIFHYALGWYRQAPGKERELVAGISKRGGSTYYADSVKGRFTISRDNAKNTVYLQMNSLKPEDTAVYYCAAGRAYDGTKHDYWGQGTQVTVSS | high polyreactivity
37 | QVQLVESGGGLVQAGGSLRLSCAASGFTFYGYAMGWYRQAPGKERELVAAISSSGTSTYYADSVKGRFTISRDNAKNTVYLQMNSLKPEDTAVYYCAALVRGAYGYGYWGQGTQVTVSS | high polyreactivity
38 | QVQLVESGGGLVQAGGSLRLSCAASGSIFRYYAMGWYRQAPGKERELVANISRGGRTYYADSVKGRFTISRDNAKYTVYLQLHSLNPEDTSVYYCAAGYWFSYSRVTRYDYWGQGTQVTVSS | high polyreactivity
39 | QVQLVESGGGLVQAGGSLRLSCAASGFIFGYNTMGWYRQAPGKERELVAAISWSGGSTYYADSVKGRFTISRVNAKNSVYLQMNSLKPEDTAVYYCATVSRSYSELDYWGQGTQVTVSS | low polyreactivity
40 | QVQLVESGGGLVQAGGSLRLSCAASGFIFFQYAMGWYRQAPGKERELVAAISSGGNTYYADSVKGRFTISRDNAKNTVYLQMNSLKPEDTAVYYCAAYYPLRKGYGYWGQGTQVTVSS | high polyreactivity
41 | QVQLVESGGGLVQAGGSLRLSCAASGLTFFPNAMGWYRQAPGKERELVAAISNNGGRTYYADSVKGRFTISRDNAKNTVYLQMNSLKPEDTAVYYCAKYLSPGERHSYDYWGQGTQVTVSS | high polyreactivity
42 | QVQLVESGGGLVQAGGSLRLSWAASGSILLGYAMGWYRQAPGKERELVAAISRNGGSTYYADSVKGRFTISRDNAKNTVYLQMNSLKPEDTAVYYCNKYSGYKGTDGGDYWGQGTQVTVSS | low polyreactivity
43 | QVQLVESGGGLVQAGGSLRLSCAASGRIFRKYAMGWSRQAPGKERELVAAISVGGGSTRYADSVKGRFTISRDNAKNTVYLQMNSLKDEDTAVYYCAADWAYYVASYLYYTFDYWGQGTQVTVSS | low polyreactivity
